Test [1] has as its target T1, recombinant EBOV glycoprotein (EBOV (Zaire ebolavirus), UniProt Q05320 33-650).
T1 sequence: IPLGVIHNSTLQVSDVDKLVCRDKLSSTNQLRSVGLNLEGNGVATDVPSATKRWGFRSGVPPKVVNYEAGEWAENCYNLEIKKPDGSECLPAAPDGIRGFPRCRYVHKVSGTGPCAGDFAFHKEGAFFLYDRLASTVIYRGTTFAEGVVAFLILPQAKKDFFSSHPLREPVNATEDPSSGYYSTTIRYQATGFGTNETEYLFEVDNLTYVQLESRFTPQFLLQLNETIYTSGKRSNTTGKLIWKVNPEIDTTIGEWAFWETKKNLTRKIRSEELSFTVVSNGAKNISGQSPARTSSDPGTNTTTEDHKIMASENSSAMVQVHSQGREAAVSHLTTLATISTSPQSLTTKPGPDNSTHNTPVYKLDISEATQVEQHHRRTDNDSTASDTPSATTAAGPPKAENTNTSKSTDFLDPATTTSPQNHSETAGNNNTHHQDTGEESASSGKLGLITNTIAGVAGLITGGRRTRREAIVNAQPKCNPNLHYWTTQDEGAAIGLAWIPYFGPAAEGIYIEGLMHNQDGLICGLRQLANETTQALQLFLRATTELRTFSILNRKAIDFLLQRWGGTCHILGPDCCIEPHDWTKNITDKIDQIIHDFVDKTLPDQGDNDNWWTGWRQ
The test can be described thus: ELISA dose-response fit, reference scFv22-1. (In general: An ELISA detects its analyte on a solid surface through an enzyme-linked reagent.)

Test [2] addresses T2, recombinant RESTV glycoprotein (RESTV (Reston ebolavirus), UniProt Q66799 34-651).
T2 sequence: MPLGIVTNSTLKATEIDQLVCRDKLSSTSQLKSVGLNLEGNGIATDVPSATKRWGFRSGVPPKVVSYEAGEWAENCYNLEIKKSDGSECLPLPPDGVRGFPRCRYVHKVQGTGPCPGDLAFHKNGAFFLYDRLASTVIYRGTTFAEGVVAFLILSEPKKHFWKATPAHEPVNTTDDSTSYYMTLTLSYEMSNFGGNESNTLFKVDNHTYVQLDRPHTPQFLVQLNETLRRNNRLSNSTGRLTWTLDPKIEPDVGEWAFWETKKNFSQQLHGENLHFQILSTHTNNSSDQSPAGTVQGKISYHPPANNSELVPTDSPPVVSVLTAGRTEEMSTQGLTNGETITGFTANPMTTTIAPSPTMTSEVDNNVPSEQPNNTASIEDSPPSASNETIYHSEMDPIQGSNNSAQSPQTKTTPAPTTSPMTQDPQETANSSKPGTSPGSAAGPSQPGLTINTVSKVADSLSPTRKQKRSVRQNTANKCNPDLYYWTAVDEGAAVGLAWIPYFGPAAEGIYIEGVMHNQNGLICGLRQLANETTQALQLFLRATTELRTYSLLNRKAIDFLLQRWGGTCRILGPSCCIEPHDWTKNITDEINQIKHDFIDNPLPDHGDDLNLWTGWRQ
In words: ELISA dose-response fit, reference scFv22-1.

In test [3] the target is T3, recombinant MARV glycoprotein (MARV (marburgvirus, Ravn), UniProt Q1PDC7 19-648).
T3 sequence: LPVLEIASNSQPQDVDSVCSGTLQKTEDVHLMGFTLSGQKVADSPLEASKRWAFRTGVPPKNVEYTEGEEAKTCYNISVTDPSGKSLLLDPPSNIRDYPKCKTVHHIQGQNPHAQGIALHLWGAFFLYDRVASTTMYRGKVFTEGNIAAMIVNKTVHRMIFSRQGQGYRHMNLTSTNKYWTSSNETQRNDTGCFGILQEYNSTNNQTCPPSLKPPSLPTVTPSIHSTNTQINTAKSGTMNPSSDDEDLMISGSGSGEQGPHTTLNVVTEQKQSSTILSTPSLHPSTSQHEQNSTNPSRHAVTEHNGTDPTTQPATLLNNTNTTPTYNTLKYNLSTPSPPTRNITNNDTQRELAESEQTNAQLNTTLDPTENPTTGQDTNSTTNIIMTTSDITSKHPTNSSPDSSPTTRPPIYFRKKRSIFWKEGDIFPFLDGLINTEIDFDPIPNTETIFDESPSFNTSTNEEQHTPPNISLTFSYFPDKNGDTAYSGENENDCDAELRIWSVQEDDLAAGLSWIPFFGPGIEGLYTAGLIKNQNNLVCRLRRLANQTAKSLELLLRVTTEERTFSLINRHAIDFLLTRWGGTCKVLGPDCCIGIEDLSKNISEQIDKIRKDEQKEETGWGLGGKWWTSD
In words: ELISA dose response, GP coated.

Test [4] concerns the target T1, recombinant EBOV glycoprotein. In words: ELISA dose response, GP coated.
In test [5] the target is T2, recombinant RESTV glycoprotein. In words: ELISA dose response, GP coated.
The target in test [6] is T4, recombinant SUDV glycoprotein (SUDV (Sudan ebolavirus), UniProt Q7T9D9 33-650).
T4 sequence: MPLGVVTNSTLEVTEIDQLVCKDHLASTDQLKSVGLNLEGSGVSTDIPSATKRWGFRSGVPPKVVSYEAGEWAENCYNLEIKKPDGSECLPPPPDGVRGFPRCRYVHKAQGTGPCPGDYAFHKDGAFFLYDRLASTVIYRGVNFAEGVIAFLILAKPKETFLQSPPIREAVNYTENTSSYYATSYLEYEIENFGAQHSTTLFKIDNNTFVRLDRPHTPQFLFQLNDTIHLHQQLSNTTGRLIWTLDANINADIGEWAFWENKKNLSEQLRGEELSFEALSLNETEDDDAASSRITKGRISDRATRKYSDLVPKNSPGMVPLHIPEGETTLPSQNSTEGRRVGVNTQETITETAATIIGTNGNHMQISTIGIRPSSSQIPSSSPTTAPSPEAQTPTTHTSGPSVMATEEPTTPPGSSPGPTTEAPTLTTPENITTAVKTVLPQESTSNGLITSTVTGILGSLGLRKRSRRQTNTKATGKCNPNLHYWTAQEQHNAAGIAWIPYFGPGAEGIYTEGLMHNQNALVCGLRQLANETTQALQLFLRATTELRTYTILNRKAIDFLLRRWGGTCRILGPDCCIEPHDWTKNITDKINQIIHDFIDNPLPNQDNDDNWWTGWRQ
In words: ELISA dose response, GP coated.

Values joined by “and” are separate entries in the source; they are usually repeats but may differ in a detail not shown here. Equal entries are not always repeated.

B1: EbovGPscFv4-2 (scFv)
scFv: MAWSHPQFEKTGSGGAELVKSGASVKLSCTASGFNIKDDYMHWVKQRPEQGLEWIGWIDPENGDTEYASKFQGKATITADTSSNTAYLQLSSLTSEDTAVYYCTTYYYGSAWFAYWGQGTLVTVSAGGGGSGGGGSGGGGSGGGGSASLSVSVGETVTITCRASGNIHNYLAWYQQKQGKSPQLLVYNAKTLADGVPSRFSGSGSGTQYSLKINNLQPEDFGSYYCQHFWSTPYTFGGGTKLEIKRADAAPTVSIFPPSSEQLTSGGASVVCFLNNFTHCQELQQDECS
Consider B1, for which the “fold affinity against scFv22-1” value in test [1] and in test [2] was roughly 2 fold throughout. The concentration for a half-maximal effect (EC50) (as a rule, the midpoint of the concentration-response curve) in test [3] was 4.51 µg/mL and < 9 µg/mL; in test [4], 4.09 µg/mL and < 9 µg/mL; in test [5], < 9 µg/mL and 7.44 µg/mL; in test [6], 5.3 µg/mL and < 9 µg/mL.

These data come from patent publication US20230212268A1 (UNM RAINFOREST INNOVATIONS, published 2023).
